How the values were obtained:
[1] = target: T1, RXRalpha (Homo sapiens, UniProt P19793 P19793:1-462); assay: cell_activity; yeast lacZ reporter, two copies, 1e-6 M 9-cis-RA; 4-fold with all-trans-RA; settings: protein: extract; tags: ubiquitin-fusion expression in yeast (YEpRXRalpha); label: 32P
[2] = target: T1, RXRalpha; assay: cell_activity; CAT reporter, RA vs no RA; settings: tags: pMT2-RXRalpha, CV-1 cells; 5' GATC overhang
Procedure: (§1) Maintenance of CV-1 cells, transfection of plasmid DNA into these cells, normalization for plasmid DNA uptake by the cells and CAT and β-galactosidase (β-gal) assays are performed as previously described in the literature. The transfection mixtures contained 5 μg of each reporter plasmid, 5 μg of the β-gal expression vector pRSV-β-gal, the amounts of the pMT2-RXRα, pMT2-RARα, pMT2-RARβ, pMT2-ARP-1 and pMT2-Ear3-COUP-TF expression vectors and the appropriate amounts of the previously described control vector pMT2-UT to bring the final amount of the plasmid DNA in the transfection mixtures to a total of 17 μg. The transfection mixtures containing the expression vectors pMT2-HNF4 or pSG5-AR, 1 μg of the β-gal expression vector pCMV-β-gal instead of the vector pRSV-β-gal is used and the final amount of plasmid DNA in the transfection mixture is adjusted to a total of 13 μg as described above.
(§2) The CAT activity in extracts from these cells is normalized for DNA uptake by the cells by conventional methods, and expressed relative to the normalized CAT activity of the construct -41ALCAT in the absence of cotransfected receptor expression vectors or any ligands (Relative CAT Activity). The data represent the average of at least two independent experiments.

[3] = target: T1, RXRalpha; assay: cell_activity; RA vs no RA; settings: tags: pMT2-RXRalpha, CV-1 cells; 5' GATC overhang
Procedure: as §1, §2

[4] = target: T1, RXRalpha; assay: cell_activity; RA vs no RA; settings: tags: pMT2-RXRalpha, CV-1 cells; 5' GATC overhang; remark: listed apart in the source
[5] = target: T2, RARalpha (UniProt P10276 P10276:1-462); assay: cell_activity; two copies of M3; RA; 500 ng RARalpha vector reverses ARP-1 repression and exceeds no-ARP-1 level; settings: tags: pMT2-RARalpha, CV-1 cells; 5' GATC overhang
T2 sequence: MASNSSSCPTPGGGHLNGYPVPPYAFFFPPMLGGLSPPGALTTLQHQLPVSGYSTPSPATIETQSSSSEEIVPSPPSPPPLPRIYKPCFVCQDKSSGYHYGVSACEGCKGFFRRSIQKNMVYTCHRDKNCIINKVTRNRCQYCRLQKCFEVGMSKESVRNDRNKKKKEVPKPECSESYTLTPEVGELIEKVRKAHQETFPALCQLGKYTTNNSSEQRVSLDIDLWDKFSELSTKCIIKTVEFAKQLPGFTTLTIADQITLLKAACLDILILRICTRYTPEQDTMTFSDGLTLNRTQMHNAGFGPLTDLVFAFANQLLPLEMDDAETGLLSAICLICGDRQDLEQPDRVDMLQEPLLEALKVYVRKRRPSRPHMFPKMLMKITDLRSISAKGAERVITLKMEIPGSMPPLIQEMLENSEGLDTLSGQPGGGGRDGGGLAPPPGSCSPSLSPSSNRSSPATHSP
Procedure: A reporter construct similar to [A5']-41ALCAT but containing two copies of a mutated version of site A5' in which the sequence CCT in the spacer between the two repeats in the site A5' has been changed to TTT (M3) is tested for its responsiveness to different amounts (indicated) of the RXRα or RARα expression vectors in the presence of RA and the indicated amounts of the ARP-1 expression vector by transient transfection assays into CV-1 cells as described in FIG. 8.

T1 sequence (P19793 whole entry, the tested form may be a part, one chain of several): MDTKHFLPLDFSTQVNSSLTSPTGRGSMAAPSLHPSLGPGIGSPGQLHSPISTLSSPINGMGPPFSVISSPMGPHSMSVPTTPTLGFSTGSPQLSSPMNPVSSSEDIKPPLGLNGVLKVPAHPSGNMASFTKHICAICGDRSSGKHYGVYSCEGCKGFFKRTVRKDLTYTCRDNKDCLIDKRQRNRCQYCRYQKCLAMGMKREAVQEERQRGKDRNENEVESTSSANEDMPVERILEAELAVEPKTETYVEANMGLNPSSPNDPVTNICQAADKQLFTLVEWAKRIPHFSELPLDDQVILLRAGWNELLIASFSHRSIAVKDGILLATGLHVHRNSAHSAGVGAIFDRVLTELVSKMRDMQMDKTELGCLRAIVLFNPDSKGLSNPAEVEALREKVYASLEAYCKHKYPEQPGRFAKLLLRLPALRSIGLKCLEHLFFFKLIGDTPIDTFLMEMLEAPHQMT

B1: apoAI site A (oligo A) (dsDNA)
DNA 1: ACTGAACCCTTGACCCCTGCCCT
DNA 2: AGGGCAGGGGTCAAGGGTTCAGT
With B1 the activity [1] was 14 fold.

B2: site A5' (dsDNA)
DNA 1: ACTGAACCCTTGACCCCTG
DNA 2: CAGGGGTCAAGGGTTCAGT
For B2, the activity [2] was 4.8 fold.

B3: M4 (dsDNA)
DNA 1: ACTGACCCCTTGACCCCTG
DNA 2: CAGGGGTCAAGGGGTCAGT
B3 gave an activity [2] of 7 fold.

B4: M2 (dsDNA)
DNA 1: ACTGAACTGATGACCCCTG
DNA 2: CAGGGGTCATCAGTTCAGT
Work on B4 yielded an activity [3] of less than 3 fold.

B5: M9 (dsDNA)
DNA 1: ACTGAACTGTGACCCCTG
DNA 2: CAGGGGTCACAGTTCAGT
With B5 the activity [4] was less than 3 fold.

B6: M10 (dsDNA)
DNA 1: ACTGACCTGTGACCCCTG
DNA 2: CAGGGGTCACAGGTCAGT
B6 gave an activity [4] of less than 3 fold.

B7: M3 (dsDNA)
DNA 1: ACTGAACTTTTGACCCCTG
DNA 2: CAGGGGTCAAAAGTTCAGT
B7 was tested, and the activity [5] was greater than 2 fold.
